For experiment [1], the target named is hu-HER2-ch(I) (chicken (Gallus gallus); human) (UniProt P04626). Briefly: flow cytometry on CHO-S cells transiently transfected with hu-HER2-ch(I), PE-goat anti-human IgG, MFI (Example 24).
Experiment [2] deals with hu-HER2-ch(IV) (human; chicken (Gallus gallus)) (UniProt P04626). The experiment in a line: flow cytometry on CHO-S cells transiently transfected with hu-HER2-ch(IV), PE-goat anti-human IgG, MFI (Example 24). On the technique in general: Flow cytometry measures light scatter and fluorescence of single cells or particles in a stream.
For experiment [3], the target named is hu-HER2-ch(III) (human; chicken (Gallus gallus)) (UniProt P04626). Briefly: flow cytometry on CHO-S cells transiently transfected with hu-HER2-ch(III), PE-goat anti-human IgG, MFI (Example 24).

B1: HER2 HuMab 153 (antibody, V domains shown)
VH: QVQLVESGGGVVQPGRSLRLSCAASGFTFSDYVIHWVRQAPGKGLEWVTVISYDGSNKYYADSVKGRFTISRDNSKNTLYLQMNSLSAEDTAMYYCARGGITGTTGVFDYWGQGTLVTVSS
VL: DIQMTQSPSSLSASVGDRVTITCRASQGISSWLAWYQQKPEKAPKSLIYDASSLQSGVPSRFSGSGYGTDFSLTISSLQPEDFAIYYCQQYKSYPITFGQGTRLEIK
By EC50 (read off the curve) is commonly meant the concentration that produces a half-maximal response. Read a low EC50 (read off the curve) as a more potent agent. For B1, the EC50 (read off the curve) in experiment [1] amounted to 0.05 µg/mL; in experiment [2], 0.04 µg/mL; in experiment [3] it was 0.03 µg/mL.

Values taken from patent US20140170149A1.
